Experimental data as given in US20240043505A1 (UNIVERSITY OF PITTSBURGH OF THE COMMONWEALTH SYSTEM OF …, published 2024).
Positions count from the first letter of the chain named.

B1: Nb37 (VHH)
VHH: QVQLVESGGGLVQTGGSLRLSCAASGRTFSNYVMGWFRQAPGKEREFVSSIEWNSENTFYANSVKGRFTISRDNAKNTVYLQMNSLKAEDTAVYYCAADRGSSYYYTRASEYTYWGQGTQVTVSS
B2: Nb60 (VHH)
VHH: HVQLVESGGGLVQAGDSLRLSCAASERTNINYAMGWFRQAPGKERDFVAAIGWNGSIIKYAESVKGRFTISRDDAKNTVSLQMNSLKPEDTAVYYCAARIGSIANLQPREYEFAYWGQGTQVTVSS
B3: Nb64 (VHH)
VHH: QVQLVESGGGLVQAGGSLRLSCAVSGRTFSIAGMGWFRQAPGKDREFLGGITWNDGTTWYADSVKGRFTISRDNAKNMLSLRMNSLKPEDTAVYYCAAGPRLGSTPRAYDYWGQGTQVTVSS
B4: Nb3 (VHH)
VHH: HVQLVESGGGLVQAGGSLRLSCVASGSGFEPNAMGWYRQAPGKQRELVAGITSGGNTNYADSVKGRFTISRDNVKNTVYLQMNSLKPEDTAVYYCNAVAPRINPRGSPTNYWGQGTQVTVSS
B5: Nb4 (VHH)
VHH: B4 VHH with H1Q, T57A, A99G, I102F
B6: Nb55 (VHH)
VHH: DVQLVESGGGLVQAGGSLRLSCAASGRTFGSTMAWFRQAPGKERDFVAAITWSADRISYADSVKGRFTISRDNDKNIVHLQMNSLKPEDTAVYVCAARASSNTYDDPRSFAFWGQGTQVTVSS
B7: Nb39 (VHH)
VHH: QVQLVESGGGLVQAGGSLRLSCAASGRTFRFSAIDWYRQAPGQQREFVASISTSGRISYGHFVKGRFTISRDNAKNTMYLQMNSLKPEDTAVYYCHLAQPDVFGGGDYWGQGTQVTVSS
B8: Nb76 (VHH)
VHH: DVQLVESGGGLVQAGGSLRLSCAVSGRTFSISTMGWFRQAPGKERLFVAGITWHDGSTNYADSVKGRFTISRDNAKNTVYLQMNSLKPEDTALYYCAARKSINYVQEYDYWGRGTQVTVSS
B9: Nb6 (VHH)
VHH: HVQLVESGGGLVQAGGSLRLSCAASGRTFSTHATGWFRQAPGKEREFLATSVWLDDISRDSTYYAESVKGRFSISRDNAKDTVYLQMNSLKPEDTAVYYCAVKQRVGPGIMSAPTYDYWGQGTQVTVSS
B10: Nb11 (VHH)
VHH: HVQLVESGGGLVQAGGSLRLSCAVSGASAERVGWFRRAPGKEREFVAAIGANGGSTNYLDSVKGRFTISRDNAKNTVYLQMNSLKPQDTAVYYCAARNLETFDYTYWGRGTQVTVSS
B11: Nb78 (VHH)
VHH: B10 VHH with H1Q, V24I, E30N, N52S, S55M, L99I, F102A, D103E, R109Q
B12: Nb74 (VHH)
VHH: HVQLVESGGGLVQAGGSLRLSCAASGRTFSSHAMAWFRQAPGKEREFVAGISWSGPYYVDSVKGRFTISTDNAKNTVYLQMNSLTPEDTAVYYCASSRGPNLYPHIGDVEYWGQGTQVTVSS
B13: Nb62 (VHH)
VHH: HVQLVESGGGLVQAGGSLRLTCAASGRTFSSSTMDMGWFRQAPGKEREFVAVDAWNDGRTYYADSVKGRFTISRDNAKNTLYLQMNSLKPGDTAVYYCHAVDVSVGGDYWGQGTQVTVSS
B14: Nb2 (VHH)
VHH: QVQLVESGGGLVQAGGSLRLSCAASGRTFSIYNMGWFRQAPGKEREFVIHMNWSNGNTATAASVKDRFTISRDNAKNTVYLQMSSLKPEDTAVYYCHATTNDYDYWGQGTQVTVSS
B15: Nb80 (VHH)
VHH: HVQLVESGGGLVQPGGSLRLSCAASGNFFLINVMSWWRQAPGNEHELHELVATITSDGRTNYGDAVQGRFTISRDNAKNTLYLQMNSLKPEDTAVYYCYAQGQGNREYWGQGTQVTVSS
B16: Nb83 (VHH)
VHH: HVQLVESGGGLVQPGGSLRLSCAASGRSFNSYLMGWFRQAPGKEREFVAWISGSPHDIIRYRDSVKDRFTISRDNAKNTVYLQMNSLKPVDTAVYYCAVGSLRVGSFSPDYWGQGTQVTVSS
B17: Nb63 (VHH)
VHH: QVQLVESGGGLVQAGGSLRLSCVASGSGFEPNAMGWYRQAPGKQRELVAGITSGGNANYADSVKGRFTISRDNVKNTVYLQMNSLKPEDTAVYYCQGPACSGSGCRNYWGQGTQVTVSS
B18: Nb82 (VHH)
VHH: DVQLVESGGGLVQAGGSLGLSCAASGSIFRLTAMGWYRQAPGKQRDLVTTITSAGIPHYADSVKGRFTISRDNAKNTVYLQMNGLKPEDTAVYYCYANTLNSQLLPRAYWGQGTQVTVSS
B19: Nb18 (VHH)
VHH: DVQLVESGGGLVQAGGSLRLSCAASGRTFSSYNVGWFRQAPGKEREFVAFIRWSGTSTYYADSVKGRFTISRDNAKNTVYLQMNSLKPEDTAVYYCAATSRTMIHTSQAMPINWDYWGQGTQVTVSS
B20: Nb100 (VHH)
VHH: B19 VHH with D1E, R27L, V34M, N74T, P88L, A109T, P111R
B21: Nb84 (VHH)
VHH: B19 VHH with N33S, V34M, E89D, T99S, I104N, H105T, T106I, A109T, P111R
B22: Nb15 (VHH)
VHH: EVQLVESGGGLVAAGGSLRLSCVPSTNIFSANAMGWYRQAPGKQRELVASITSGGNTNYADSVKGRFTISRDNADTVILQMNSLKPEDTAVYYCKGTAYSTTYNSVRDYWGQGTQVTVSS
B23: Nb42 (VHH)
VHH: HVQLVESGGGLVQAGESLRLSCVASGSIFSINAMGWFRQAPGKQRELVASISNIGTTIYAESVKGRFTISRDNAKNTADLQMNSLKPEDTAIYYCNLRQGCSYNGCDEYWGQGTQVTVSS
B24: Nb68 (VHH)
VHH: QVQLVESGGGLVQAGGSLRLSCAASGGTLRSYNMGWFRQGPGKEREFVAAISWTGLGTYYGDSVKGRFTISRDVIKNTLYLQMDSLKPEDTAIYYCAADSSTSRLHSAGSDYRYWGQGTQVTVSS
B25: Nb58 (VHH)
VHH: QVQLVESGGGLVQAGGSLRLSCAASGRDFSSTVMGWFRQAPGKERELVAWMTVTYDITYYADSVKGRFTISKDNAKNTVYLQANSLKPDDTAVYYCASGALRVGSFSPDYWGQGTQVTVSS
B26: Nb90 (VHH)
VHH: HVQLVESGGGLVQAGGSLRLSCAVSGRTVSSYVMGWFRQAPGKEREFVAGIGRTGMTITADSVKGRFTISRDNAKNLVYLQMNSLKSEDTAVYWCAAGVRDFAPRIDSYDYWGQGTQVTVSS
B27: Nb48 (VHH)
VHH: HVQLVESGGGLVQAGGSLRLSCAASGSIFRHYNMGWFRQAPGKEREFVSAISWTNIGTYYADSVKGRFSISRDNNRNTAYLEMNSLKPEDTAVYYCAADRSEFGSRLYSDENEYDYWGQGTQVTVSS
B28: Nb24 (VHH)
VHH: QVQLVESGGGLVQAGGSLRLTCAASGGTFSTSTMDMGWFRQAPGKEREFVALDSWNGGRTYYADSVKGRFTISRDNAKNTLYLQMNSLKPEDTAVYYCAADTYSNYEKDDSWGYWGQGTQVTVSS
B29: Nb29 (VHH)
VHH: B28 VHH with Q1H, L52V, G57D, T60A, D101E, D109A, D110Y
B30: Nb28 (VHH)
VHH: B28 VHH with Q1H, T21S, G27R, A51G, L52A, G57D, S87N, D101E, N105L, D109S
B31: Nb26 (VHH)
VHH: B28 VHH with Q1H, G27R, T31I, L52A, S54A, G57D, A99T, E107K
B32: Nb32 (VHH)
VHH: DVQLVESGGGLVQAGGSLRLSCAASGRTFSSDTMDMGWFRQAPGKEREFVALHSWNGGKTYYADSVKGRFTISRDNAKNTLYLQMNNLKPEDTAVYYCAAETYTLYEKDSSWGYWGQGTQVTVSS
B33: Nb46 (VHH)
VHH: QVQLVESGGGLVQAGGSLRLSCAVSGSTLGINAIGWYRQPPGKQRELVASISSLGTTLYAESVKGRFAISRDNAKNTGYLQMNSLKPDDTAVYYCNMRTPYMRDYWGQGTQVTVSS
B34: Nb16 (VHH)
VHH: DVQLVESGGGLVQAGESLRLSCAASGDMFSSNAMAWYRQAPGKQRELVASITSGGNTNYADSVKGRFTISRDNAKNTVYLQMDSLKPEDTAVYYCNGVAYDYSWGRPRNFWGQGTQVTVSS
B35: Nb66 (VHH)
VHH: HVQLVESGGGLVQAGGSLRLSCAASGRTFSVNSIAWFRQAPGKEREFVATINWSGGDIYYADSVKGRFTISRDNGKNTVYLQMNSLKPTDTAVYYCAAARFYGRSIAQDYDSWGQGTQVTVSS
B36: Nb43 (VHH)
VHH: EVQLVESGGGLVQAGGSLRLTCAASGRTFSSSTMDMGWFRQAPGKEREFVAVDAWNDGRTYYADSVKGRFTISRDNAKNTLYLQMNSLKPEDTAIYYCNLRQGCSYNGCDEYWGQGTQVTVSS
B37: Nb41 (VHH)
VHH: DVQLVESGGGLVQAGGSLRLSCAASGFTFSNYVMYWGRQAPGKGREWVSGIDSDGSDTAYASSVKGRFTISRDNAKKTLYLQMNDLKPEDTALYYCVKSKDRYGSPWTRSEFEDYWGQGTQVTVSS

target: SARS-CoV-2 spike receptor-binding domain (RBD) (SARS-CoV-2, UniProt P0DTC2 319-541); experiment: indirect ELISA on coated RBD ('ELISA affinity')

Row | Binder | IC50
1 | B1 | 0.38 nM
2 | B2 | 138 nM
3 | B3 | 0.45 nM
4 | B4 | 0.48 nM
5 | B5 | 0.67 nM
6 | B6 | 2.24 nM
7 | B7 | 1.49 nM
8 | B8 | 0.17 nM
9 | B9 | 0.57 nM
10 | B10 | 0.39 nM
11 | B11 | 0.61 nM
12 | B12 | 67.1 nM
13 | B13 | 85.7 nM
14 | B14 | 4.82 nM
15 | B15 | 5.09 nM
16 | B16 | 1.51 nM
17 | B17 | 0.84 nM
18 | B18 | 0.86 nM
19 | B19 | 0.57 nM

Row | Binder | IC50
20 | B20 | 1.04 nM
21 | B21 | 0.53 nM
22 | B22 | 0.47 nM
23 | B23 | 0.66 nM
24 | B24 | 6.11 nM
25 | B25 | 2.68 nM
26 | B26 | 4.03 nM
27 | B27 | 1.08 nM
28 | B28 | 0.77 nM
29 | B29 | 1.25 nM
30 | B30 | 0.92 nM
31 | B31 | 0.92 nM
32 | B32 | 2.17 nM
33 | B33 | 25.9 nM
34 | B34 | 0.37 nM
35 | B35 | 0.33 nM
36 | B36 | 664 nM
37 | B37 | 0.2 nM
